In article PMC4643876 (2015):
Read-outs that look alike come from different tables or passages of the source. Ends that are not written are not given here. * marks the point of attachment. Biotin = O=C1N[C@H]2[C@H](CS[C@H]2CCCCC(=O)*)N1; Octanoyl = CCCCCCCC(=O)*; GABA = NCCCC(=O)O

Experiments:
[1] = molecular target: T1, GFP-tagged Plasmepsin V (PmV-GFP), P. falciparum clone DC6 (Plasmodium falciparum); experiment: 3 uM HRPII-PExEl substrate
[2] = molecular target: T1, GFP-tagged Plasmepsin V (PmV-GFP), P. …
[3] = molecular target: T1, GFP-tagged Plasmepsin V (PmV-GFP), P. …; experiment: 3 uM HRPII-PExEl substrate; remark: listed apart in the source
[4] = molecular target: T1, GFP-tagged Plasmepsin V (PmV-GFP), P. …; experiment: 3 uM HRPII-PExEl substrate; remark: listed apart in the source
[5] = molecular target: T1, GFP-tagged Plasmepsin V (PmV-GFP), P. …; remark: listed apart in the source

T1 sequence (Q8I6Z5 whole entry): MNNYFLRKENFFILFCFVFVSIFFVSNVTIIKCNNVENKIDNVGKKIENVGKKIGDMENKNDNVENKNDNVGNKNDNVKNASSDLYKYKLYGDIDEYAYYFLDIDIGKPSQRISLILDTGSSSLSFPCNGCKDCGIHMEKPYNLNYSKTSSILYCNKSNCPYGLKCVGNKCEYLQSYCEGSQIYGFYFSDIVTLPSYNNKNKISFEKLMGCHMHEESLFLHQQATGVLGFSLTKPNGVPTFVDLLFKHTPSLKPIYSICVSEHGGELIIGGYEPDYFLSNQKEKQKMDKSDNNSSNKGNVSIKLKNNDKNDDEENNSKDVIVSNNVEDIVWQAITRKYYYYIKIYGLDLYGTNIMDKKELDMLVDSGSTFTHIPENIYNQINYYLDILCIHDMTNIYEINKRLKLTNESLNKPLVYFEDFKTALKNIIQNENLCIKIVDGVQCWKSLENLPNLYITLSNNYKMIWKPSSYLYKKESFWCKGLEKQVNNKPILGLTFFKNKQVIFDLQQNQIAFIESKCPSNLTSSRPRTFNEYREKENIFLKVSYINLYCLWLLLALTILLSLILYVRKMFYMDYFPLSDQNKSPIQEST

B1: Compound 1 (LG20), RL[L~A]EA (peptide)
peptide: RLLAEA
modifications: also: hydroxyethylamino (HEA) isostere in place of peptide bond Leu3-Ala4
[1]
  IC50: 0.37 nM

B2: Compound 36, a biotinylated version of Compound 1 (peptide)
peptide: {Biotin-GABA-GABA}-RLLAEA
modifications: also: hydroxyethylamino (HEA) isostere in place of peptide bond Leu3-Ala4
[2]
  Ki: 22.5 nM
[3]
  IC50: 41.9 nM

B3: Compound 7a (peptide)
chain: RLLYEA
modifications: not fully specified; also: HEA isostere replaces the Leu3-Tyr4 peptide bond
[4]
  IC50: 1.38 nM
[5]
  Ki: 0.74 nM

B4: Compound 37a (octanoyl group at the N-terminus of Compound 7a) (peptide)
peptide: Octanoyl-RLLYEA
modifications: also: hydroxyethylamino (HEA) isostere in place of peptide bond Leu3-Tyr4, carbinol S
[2]
  Ki: 0.01 nM
